# Source: patent publication US11904004B2, “Anti-CD277 antibodies” (INSTITUT NATIONAL DE LA SANTE ET DE LA RECHERCHE MEDICALE …, priority 2010, dated 2024)
# B1: mAb 20.1: murine anti-CD277 antibody obtainable from the hybridoma CNCM I-4402; agonist (antibody, V domains shown)
# VH: QVQLQQSGAELVKPGASVKLSCKASGYTFTRYYLYWVKQRPGQGLEWIGEINPNNGGTKFNEKFKSKATLTVDKSSRTTYIQLSSLTSEDSAVYYCSREDDYDGTPDAMDYWGQGTAVTVSS
# VL: DIQMNQSPSSLSASLGDTITITCHASQNINLWLSWYQQRPGNIPKLLIYRASNLHTGVPSRFSGSGSATGFTLTISSLQPEDIATYYCQQGHSYPYTFGGGTKLDIK
# How the values were obtained:
# NK cells = assay: Functional assay on NK cells, redirected cytolytic activity; format: cell-based, human
# Experimental: Fresh NK cells were sorted with EASY SEP® negative selection kit and incubated over night in medium completed with sub-optimal concentrations of IL-2 (100 U/ml) and IL-15 (10 ng/ml). NK cell receptors functions were tested in re-directed cytolytic experiments against the FcγR positive P815 mastocytoma murine cell line. Briefly, effector cells were incubated with P815 cells pre-coated for 30 minutes with the mAb of interest (irrelevant mouse IgG1: 11 μg/ml, anti-NKp46: 1 μg/ml, anti-DNAM: 5 μg/ml, anti-CD277 20.1: 10 μg/ml) according to a 1:1 Effector:Target (E/T) ratio. Cytotoxic tests were performed in 4-hours assays in the presence of GOLGISTOP® (protein transport inhibitor) and soluble CD107 (a&b)-FITC (both from BD Biosciences), afterward cells were stained for surface markers (CD56-PeCy7 (Beckman Coulter, Immunotech), fixed and permeabilized (CYTOFIX/CYTOPERM®) then stained with intracellular mAb (IFN-γ (Beckman Coulter, Immunotech)). Cells were finally re-suspended in PBS 2% para-formaldehyde and extemporaneously analyzed on a BD FACS CANTO® (BD Biosciences, San Jose, Calif.). The degree of activation of NK cells was measured based on the percentage of cells positive for CD107a and CD107b (degranulation) and/or the production of inflammatory cytokine (IFN-γ).
# primary AML blasts [1] = assay: Chromium release assay, lysis of primary AML blasts by NK cells; format: cell-based, human
# Experimental: Effector γδ T cells were established and maintained as previously described^28. PBMC from HV were stimulated with ZOL (1 μm) and rhlL-2 (200 IU/ml) at Day 0. From Day 5, rhIL-2 was renewed every two days and cells were kept at 1.5×10^6/m1 for 15 days. NK cells were isolated using EASYSEP® Human NK cell enrichment kit (StemCell Technologies). The purity of γδ T cells and NK cells was determined by flow cytometry and respectively greater than 80% and 98%. The Burkitt lymphoma cell line, DAUDI, the human AML cell line, U937, and the erythroleukemic cell line, K562, were obtained from the American Type Culture Collection and cultured (0.5×10^6/ml) in RPMI 1640 medium with 10% FCS. […]
# (§1) 0.5×10^6 target cells were incubated with 50 pCi of ^51Cr (Perkin-Elmer) for AML blasts and 10 pCi for DAUDI and K562 cells for 90 minutes and mixed with effector cells in a Effector:Target (E:T) ratio of […]. After 4 hours of incubation at 37° C., 50p1 supernatant of each sample was transferred in LUMA® plates and radioactivity was determined by a gamma counter. The percentage of specific lysis was calculated using the formula [(experimental−spontaneous release/total−spontaneous release)×100] and expressed as the mean of triplicate.
# primary AML blasts [2] = assay: Chromium release assay, lysis of primary AML blasts by Vγ9Vδ2 T cells; format: cell-based, human
# Experimental: Effector γδ T cells were established and maintained as previously described^28. PBMC from HV were stimulated with ZOL (1 μm) and rhlL-2 (200 IU/ml) at Day 0. From Day 5, rhIL-2 was renewed every two days and cells were kept at 1.5×10^6/m1 for 15 days. NK cells were isolated using EASYSEP® Human NK cell enrichment kit (StemCell Technologies). The purity of γδ T cells and NK cells was determined by flow cytometry and respectively greater than 80% and 98%. The Burkitt lymphoma cell line, DAUDI, the human AML cell line, U937, and the erythroleukemic cell line, K562, were obtained from the American Type Culture Collection and cultured (0.5×10^6/ml) in RPMI 1640 medium with 10% FCS. BTN3A Knock-down HEK293FT cells (sh #284; clone #30) were provided by E.Scotet (Inserm U892, Nantes), cultured and transfected with BTN3A1, BTN3A2, BTN3A3 mutated cDNA-containing plasmids, as described^23.
# as §1
# Vγ9Vδ2 T cells = assay: Flow cytometry of Vγ9Vδ2 T cells co-cultured with AML blasts (trogocytosis, CD107a, cytokines); format: cell-based, human
# Experimental: 2×10^5 PBMC were washed in PBS (Cambrex Bio Science) and incubated at 4° C. for 20 min with specified mAb. Following incubation and washing, samples were analyzed on LSRFORTESSA® or FACS CANTO® II (Becton Dickinson) using DIVA® software (BD bioscience, Mountain View, Calif.). For analysis of CD107 expression, γδ T cells were incubated at 37° C. in the presence of anti-CD107a and GOLGISTOP® with or without anti-BTN3A 20.1 mAb. After 4 hours, cells were collected, washed in PBS and analyzed by flow cytometry. To study cytokine production, cells were further permeabilized with PERMWASH® (BD bioscience) to allow intracellular staining with labeled antibodies. Trogocytosis of PKH67 (Sigma Aldrich) labeled blasts by γδ T cells was quantified as previously described^29.
# Vγ9/Vδ2 T cells = assay: Cytolytic function, cytokine production and proliferation of Vγ9/Vδ2 T cells; format: cell-based
# Excerpt: Typically the activation of the cytolytic function of Vγ9/Vδ2 T cells may be measured according to the method described in example 3 (i.e. “Analysis of Vγ9Vδ2 T cell responses by direct cytotoxicity assay”, and for example the results “CD277 potentiate the anti-tumor cytolysis mediated by Vγ9Vδ2 T cells”). Examples of isolated anti-CD277 antibodies, which activate the cytolytic function, cytokine production and proliferation of Vγ9/Vδ2 T cells, are mAbs 20.1 or 7.2, or derivatives thereof.
# Target cells were labelled with 20 μCi of 51Cr (PerkinElmer) for 1 h at 37° C. After washing target cells were incubated with effectors Vγ9Vδ2 T cells for 4 h at 37° C. in different ratio. Incubations were performed in presence of specific or isotype control mAbs or Fab fragments. The radioactivity released by target cells was measured, 4 h later, on beta plate counter. The percentage of specific 51Cr lysis was calculated using the following equation: percent specific lysis=100×[(test release)−(spontaneous release)]/[(maximal release)−(spontaneous release)].
# [3] = with anti-NKp46 or anti-CD16, data not shown
# [4] = 4-hour co-culture with AML blasts
molecule,measurement,setting,value
B1,NK cell stimulation by CD277 mAb alone,NK cells; P815 redirected assay,did not have any effect
same,"NK cell IFN-γ secretion, co-stimulation of NKp46 or CD16",NK cells; [3],not affected
same,"NK cell cytotoxicity, co-stimulation of NKp46 or CD16",NK cells; [3],not affected
same,NK cells-mediated AML blasts lysis,primary AML blasts [1],no effect
same,Vγ9Vδ2 T cell lysis of ZOL-resistant or ZOL-poorly responsive AML blasts,primary AML blasts [2]; E:T 30:1,significantly enhanced
same,enhancement of Vγ9Vδ2 T cells lysis of AML blasts compared with BrHpp,"primary AML blasts [2]; E:T 30:1, ZOL 45 μM O/N, 20.1 mAb 10 μg/ml, BrHpp 2 μM",significantly more efficient
same,specific lysis of AML blasts,"primary AML blasts [2]; Vγ9Vδ2 T cells pre-incubated with mAb (10 μg/ml, 90 minutes), washed",~4.36±2.11%
same,"AML blasts lysis by Vγ9Vδ2 T cells, addition to ZOL",primary AML blasts [2]; anti-BTN3A 20.1 mAb added to ZOL,poor but significant
same,specific lysis of AML blasts,"primary AML blasts [2]; blasts pre-incubated with mAb (10 μg/ml, 90 minutes), washed",22.92±7.64%
same,sensitization of blasts from UPN09 to Vγ9Vδ2 T cells lysis in vitro,primary AML blasts [2]; data not shown,highly sensitized
same,specific lysis of AML blasts,"primary AML blasts [2]; simultaneous incubation of effector cells, target cells and mAb",35.95±1.16%
same,cytokine production of IFNγ by Vγ9Vδ2 T cells,Vγ9Vδ2 T cells; [4],greater
same,cytokine production of TNFα by Vγ9Vδ2 T cells,Vγ9Vδ2 T cells; [4],greater
same,degranulation assessed by the expression of CD107a,Vγ9Vδ2 T cells; [4],greater ability to degranulate
same,trogocytosis of AML blasts by Vγ9Vδ2 T cells,"Vγ9Vδ2 T cells; 1 hour co-culture, vs IgG1",significantly enhanced
same,"cytolytic function, cytokine production and proliferation of Vγ9/Vδ2 T cells",Vγ9/Vδ2 T cells,activate
